The values below come from paper PMC12146848, “Deciphering meiotic chromatin organization by SYCP3”.

The target of data set [1] is T1, SYCP3 (Mus musculus, UniProt P70281).
T1 sequence: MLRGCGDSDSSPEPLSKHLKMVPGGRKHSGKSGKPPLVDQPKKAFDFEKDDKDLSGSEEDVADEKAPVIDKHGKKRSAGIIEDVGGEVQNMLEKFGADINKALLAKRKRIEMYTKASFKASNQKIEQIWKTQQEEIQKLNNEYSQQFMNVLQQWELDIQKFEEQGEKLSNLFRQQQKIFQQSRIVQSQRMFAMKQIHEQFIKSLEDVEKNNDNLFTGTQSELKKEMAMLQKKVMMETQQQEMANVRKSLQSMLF
Briefly: EMSA; 0.2 uM probe, 1 ug SYCP3 in 15 ul; Beyotime GS008 Gel-Shift binding buffer (composition and pH not given), 15 ul, 1 h at room temperature, 4% polyacrylamide gel. To be noted: protein: recombinant; tags: C-terminal 6xHis; chain copies: 4; label: 3' biotin-dUTP added by TdT on both strands; blunt before 3' TdT labeling. (In EMSA bound probe runs differently from free probe, usually more slowly.)

For data set [2], the target named is T1, SYCP3. As to the kind of experiment: competition; 50-fold excess against labeled WT Probe; efficient competition; Beyotime GS008 Gel-Shift binding buffer (composition and pH not given), 15 ul, 1 h at room temperature, 4% polyacrylamide gel. The settings on record: protein: recombinant; tags: C-terminal 6xHis; chain copies: 4; label: unlabeled; blunt.
Data set [3] deals with T1, SYCP3. Briefly: competition; 50-fold excess against labeled WT Probe; higher affinity than WT; Beyotime GS008 Gel-Shift binding buffer (composition and pH not given), 15 ul, 1 h at room temperature, 4% polyacrylamide gel. To be noted: protein: recombinant; tags: C-terminal 6xHis; chain copies: 4; label: unlabeled; blunt.
For data set [4], the target named is T1, SYCP3. Briefly: EMSA; stronger than WT Probe; Beyotime GS008 Gel-Shift binding buffer (composition and pH not given), 15 ul, 1 h at room temperature, 4% polyacrylamide gel. To be noted: protein: recombinant; tags: C-terminal 6xHis; chain copies: 4; label: 3' biotin-dUTP added by TdT on both strands; blunt before 3' TdT labeling.

B1: WT Probe (dsDNA)
DNA 1: ACAGTCCTGGTGATTGAACTCCGGCCCTGGGCATGCCAGGCGAGCACTCCACTCTTTGAG
DNA 2: CTCAAAGAGTGGAGTGCTCGCCTGGCATGCCCAGGGCCGGAGTTCAATCACCAGGACTGT
As for B1, the binding result with SYCP3 [1] was “binds”.

B2: WT competitor (dsDNA)
DNA 1: ACAGTCCTGGTGATTGAACTCCGGCCCTGGGCATGCCAGGCGAGCACTCCACTCTTTGAG
DNA 2: CTCAAAGAGTGGAGTGCTCGCCTGGCATGCCCAGGGCCGGAGTTCAATCACCAGGACTGT
On to B2, for which the binding result in the data set with SYCP3 [2] is “binds”.

B3: Mut competitor (dsDNA)
DNA 1: GTGACTTCAACAGCCAGGTCTTAATTTCAAATGCATTGAATAGATGTCTTGTCTCCCAGA
DNA 2: TCTGGGAGACAAGACATCTATTCAATGCATTTGAAATTAAGACCTGGCTGTTGAAGTCAC
With B3, in the data set with SYCP3 [3], the binding result is “binds”.

B4: Mut probe (dsDNA)
DNA 1: GTGACTTCAACAGCCAGGTCTTAATTTCAAATGCATTGAATAGATGTCTTGTCTCCCAGA
DNA 2: TCTGGGAGACAAGACATCTATTCAATGCATTTGAAATTAAGACCTGGCTGTTGAAGTCAC
For B4, in the data set with SYCP3 [4], the binding result is listed as “binds”.
